From paper PMC4132270

Columns and labels:
[1] = biological target: Taq 1C2 (Thermus aquaticus) (UniProt P19821); assay: EMSA; conditions: 3' end blocked with dideoxy TMP (3' ddT; unclear whether the printed 3' T is the ddT or it is added); 0.25 nM hairpin, 0.5-1000 nM enzyme, 1x Taq buffer (50 mM KCl for wild type, 95 mM KCl for mutants; full composition and pH not stated for this assay), 37 C …
[2] = biological target: Taq 42 G59W;L245M;L375V;E507K;K508R;E734G;F749I (Thermus aquaticus) (UniProt P19821); assay: EMSA; conditions: 3' end blocked with dideoxy TMP (3' ddT; unclear whether the printed 3' T is the ddT or it is added); 0.25 nM hairpin, 0.5-1000 nM enzyme, 1x Taq buffer (50 mM KCl for wild type, 95 mM KCl for mutants; full composition and pH not stated for this assay), 37 C …

CTCCAGACACGACGCAGTTGCCCGATGGTCGACGTTCGCGAAAGCGAACGTCGACCATCGGGCAACT [hairpin primer-template]
Kd [1]: 1.9 nM
Kd [2]: 2.75 nM
